Key:
VvibHLH93 [1] = molecular target: T1, VvibHLH93 (Vitis vinifera, UniProt A0ABY9CC89 1-331); assay: EMSA; LightShift Chemiluminescent EMSA Kit (Thermo Fisher) per manufacturer's protocol; buffer, salt, pH and temperature not stated; conditions: protein: recombinant, tags: His (pET-32a fusion), chain copies: 2
VvibHLH93 [2] = molecular target: T1, VvibHLH93; assay: competition; 50x unlabeled competitor vs N1; shifted band less abundant; LightShift Chemiluminescent EMSA Kit (Thermo Fisher) per manufacturer's protocol; buffer, salt, pH and temperature not stated; conditions: protein: recombinant; tags: His (pET-32a fusion); chain copies: 2

T1 sequence (A0ABY9CC89 entry or part of it): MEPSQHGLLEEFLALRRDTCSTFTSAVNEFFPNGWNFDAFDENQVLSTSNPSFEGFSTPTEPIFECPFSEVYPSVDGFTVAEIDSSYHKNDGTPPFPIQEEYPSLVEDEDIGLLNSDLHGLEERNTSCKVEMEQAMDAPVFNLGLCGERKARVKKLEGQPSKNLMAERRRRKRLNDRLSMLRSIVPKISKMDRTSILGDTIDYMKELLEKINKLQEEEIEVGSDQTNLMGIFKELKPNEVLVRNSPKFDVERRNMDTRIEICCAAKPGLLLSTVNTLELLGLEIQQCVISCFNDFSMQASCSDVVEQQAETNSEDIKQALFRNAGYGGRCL

B1: VviLAR1 promoter E/G-box mutant probe (dsDNA)
DNA 1: GAGTCGTTGAGGTATATCATTTTTTTGTTAGAAAATCTTATG
DNA 2: CATAAGATTTTCTAACAAAAAAATGATATACCTCAACGACTC
binding result (VvibHLH93 [1]): no binding

B2: VviLAR1 promoter E/G-box probe (tandem MYC and G-box) (dsDNA)
DNA 1: GAGTCGTTGAGGCACATGATTTTTTTGTTAGGACGTGTTATG
DNA 2: CATAACACGTCCTAACAAAAAAATCATGTGCCTCAACGACTC
binding result (VvibHLH93 [1]; label: 3' biotin): binds

B3: VviLAR1 promoter E/G-box cold probe (dsDNA)
DNA 1: GAGTCGTTGAGGCACATGATTTTTTTGTTAGGACGTGTTATG
DNA 2: CATAACACGTCCTAACAAAAAAATCATGTGCCTCAACGACTC
binding result (VvibHLH93 [2]): binds
